Source: doi:10.1101/2021.06.15.448428

Assays:
Assay in all cases: co-IP
[1] = target: Ste6*-GFP (S. cerevisiae) (UniProt P12866)
Hmg2-GFP (S. cerevisiae) = Hmg2-GFP (S. cerevisiae) (UniProt P12684)
[2] = target: Pdr5*-Myc (S. cerevisiae) (UniProt P33302)
Sequence of UniProt P33302 (P33302 whole entry): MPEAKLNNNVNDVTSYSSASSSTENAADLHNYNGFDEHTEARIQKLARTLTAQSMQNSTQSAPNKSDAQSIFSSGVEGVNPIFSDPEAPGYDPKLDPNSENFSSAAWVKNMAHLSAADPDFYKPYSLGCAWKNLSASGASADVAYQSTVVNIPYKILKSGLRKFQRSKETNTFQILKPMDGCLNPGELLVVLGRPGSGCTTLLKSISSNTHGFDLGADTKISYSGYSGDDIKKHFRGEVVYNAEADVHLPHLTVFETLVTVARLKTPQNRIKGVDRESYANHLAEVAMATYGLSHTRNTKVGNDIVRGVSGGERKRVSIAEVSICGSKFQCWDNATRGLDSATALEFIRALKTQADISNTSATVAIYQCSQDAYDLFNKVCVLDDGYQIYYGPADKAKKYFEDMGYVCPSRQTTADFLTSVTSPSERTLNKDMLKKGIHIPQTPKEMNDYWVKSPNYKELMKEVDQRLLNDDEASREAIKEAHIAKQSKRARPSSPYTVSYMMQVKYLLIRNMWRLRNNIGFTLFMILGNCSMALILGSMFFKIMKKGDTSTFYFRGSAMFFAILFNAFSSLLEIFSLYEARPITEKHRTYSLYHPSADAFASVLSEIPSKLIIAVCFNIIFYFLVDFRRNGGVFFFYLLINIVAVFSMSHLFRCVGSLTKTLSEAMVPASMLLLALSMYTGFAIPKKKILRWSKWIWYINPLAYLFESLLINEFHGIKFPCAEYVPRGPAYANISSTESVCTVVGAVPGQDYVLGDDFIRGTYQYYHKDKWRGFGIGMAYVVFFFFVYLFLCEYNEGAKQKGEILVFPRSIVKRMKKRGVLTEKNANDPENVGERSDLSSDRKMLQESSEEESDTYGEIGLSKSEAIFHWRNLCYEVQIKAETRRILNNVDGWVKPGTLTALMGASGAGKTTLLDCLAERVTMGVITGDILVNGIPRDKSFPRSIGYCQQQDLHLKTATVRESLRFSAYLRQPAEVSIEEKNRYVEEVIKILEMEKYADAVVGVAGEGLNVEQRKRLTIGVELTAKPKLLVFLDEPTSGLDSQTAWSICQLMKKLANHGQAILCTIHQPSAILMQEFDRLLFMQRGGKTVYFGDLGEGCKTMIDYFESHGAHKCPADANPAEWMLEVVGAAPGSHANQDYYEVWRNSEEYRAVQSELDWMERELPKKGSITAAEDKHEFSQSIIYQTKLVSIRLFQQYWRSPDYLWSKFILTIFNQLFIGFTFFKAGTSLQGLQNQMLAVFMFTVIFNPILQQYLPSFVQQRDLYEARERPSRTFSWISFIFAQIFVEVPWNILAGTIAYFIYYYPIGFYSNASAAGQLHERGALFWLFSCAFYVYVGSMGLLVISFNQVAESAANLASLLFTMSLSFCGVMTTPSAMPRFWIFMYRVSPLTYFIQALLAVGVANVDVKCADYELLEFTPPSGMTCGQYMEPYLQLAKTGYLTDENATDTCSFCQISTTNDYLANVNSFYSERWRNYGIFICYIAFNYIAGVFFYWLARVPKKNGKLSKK

Sequence of UniProt P12866 (P12866 whole entry): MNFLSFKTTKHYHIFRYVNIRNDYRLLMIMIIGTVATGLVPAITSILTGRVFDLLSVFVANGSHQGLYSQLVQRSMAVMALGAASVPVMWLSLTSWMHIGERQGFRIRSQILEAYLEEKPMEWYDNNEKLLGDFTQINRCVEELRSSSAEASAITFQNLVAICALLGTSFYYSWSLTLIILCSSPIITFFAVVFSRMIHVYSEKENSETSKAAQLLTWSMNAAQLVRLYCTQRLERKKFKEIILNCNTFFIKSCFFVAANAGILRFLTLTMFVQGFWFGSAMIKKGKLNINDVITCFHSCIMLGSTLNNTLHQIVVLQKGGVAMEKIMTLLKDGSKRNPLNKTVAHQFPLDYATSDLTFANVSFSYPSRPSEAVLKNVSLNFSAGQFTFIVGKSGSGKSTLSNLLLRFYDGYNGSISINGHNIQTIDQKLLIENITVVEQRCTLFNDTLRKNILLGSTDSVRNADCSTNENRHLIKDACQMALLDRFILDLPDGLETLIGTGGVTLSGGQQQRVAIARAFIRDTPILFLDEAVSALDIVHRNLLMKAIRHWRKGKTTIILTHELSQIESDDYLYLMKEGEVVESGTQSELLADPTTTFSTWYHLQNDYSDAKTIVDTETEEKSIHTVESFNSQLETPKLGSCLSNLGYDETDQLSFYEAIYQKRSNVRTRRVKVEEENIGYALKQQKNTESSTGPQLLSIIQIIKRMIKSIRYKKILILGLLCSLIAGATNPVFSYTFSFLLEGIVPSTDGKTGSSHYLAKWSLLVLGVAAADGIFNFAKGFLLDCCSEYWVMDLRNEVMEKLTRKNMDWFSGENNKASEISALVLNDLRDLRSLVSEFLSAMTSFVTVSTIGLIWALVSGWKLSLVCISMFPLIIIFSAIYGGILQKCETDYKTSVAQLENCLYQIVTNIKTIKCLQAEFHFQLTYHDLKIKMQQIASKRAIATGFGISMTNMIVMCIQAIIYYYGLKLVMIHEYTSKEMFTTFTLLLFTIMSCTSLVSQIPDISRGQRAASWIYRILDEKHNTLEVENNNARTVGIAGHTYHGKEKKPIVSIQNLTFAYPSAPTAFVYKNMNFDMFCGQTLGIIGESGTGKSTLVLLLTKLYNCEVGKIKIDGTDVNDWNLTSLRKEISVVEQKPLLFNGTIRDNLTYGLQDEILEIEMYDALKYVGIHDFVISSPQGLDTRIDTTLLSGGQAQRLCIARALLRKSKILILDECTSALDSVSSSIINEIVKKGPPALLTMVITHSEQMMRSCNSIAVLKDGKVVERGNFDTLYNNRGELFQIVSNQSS
Sequence of UniProt P12684 (P12684 whole entry): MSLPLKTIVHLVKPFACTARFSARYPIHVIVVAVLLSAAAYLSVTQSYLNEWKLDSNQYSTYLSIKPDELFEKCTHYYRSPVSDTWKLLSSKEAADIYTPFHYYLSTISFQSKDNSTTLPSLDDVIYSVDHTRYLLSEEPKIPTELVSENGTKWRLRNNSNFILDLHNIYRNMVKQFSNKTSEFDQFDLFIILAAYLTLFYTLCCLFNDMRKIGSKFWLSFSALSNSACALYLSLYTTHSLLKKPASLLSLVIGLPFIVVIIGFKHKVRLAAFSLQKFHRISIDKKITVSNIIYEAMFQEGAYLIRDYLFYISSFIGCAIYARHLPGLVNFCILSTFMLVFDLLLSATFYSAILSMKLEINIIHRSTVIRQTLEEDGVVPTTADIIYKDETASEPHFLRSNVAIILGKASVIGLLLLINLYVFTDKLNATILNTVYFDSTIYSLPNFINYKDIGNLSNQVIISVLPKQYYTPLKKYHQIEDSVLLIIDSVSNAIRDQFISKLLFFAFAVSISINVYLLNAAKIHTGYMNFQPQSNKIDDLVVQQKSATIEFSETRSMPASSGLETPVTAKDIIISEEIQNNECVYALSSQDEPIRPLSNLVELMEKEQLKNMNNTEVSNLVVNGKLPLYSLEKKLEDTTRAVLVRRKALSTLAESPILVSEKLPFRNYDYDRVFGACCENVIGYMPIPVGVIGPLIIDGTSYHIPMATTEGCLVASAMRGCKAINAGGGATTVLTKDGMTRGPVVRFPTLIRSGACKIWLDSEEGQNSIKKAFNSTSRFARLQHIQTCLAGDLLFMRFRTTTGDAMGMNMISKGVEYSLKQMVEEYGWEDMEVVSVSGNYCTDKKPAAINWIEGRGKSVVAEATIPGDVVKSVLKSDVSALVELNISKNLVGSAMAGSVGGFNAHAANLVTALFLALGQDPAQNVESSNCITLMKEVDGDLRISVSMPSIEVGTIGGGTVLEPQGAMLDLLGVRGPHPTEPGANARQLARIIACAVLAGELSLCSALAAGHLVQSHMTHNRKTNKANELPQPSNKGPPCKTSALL

fraction bound compared to wildtype Dfm1 [1]: < 5%
fraction bound compared to wildtype Dfm1 (Hmg2-GFP (S. cerevisiae)): < 5%
fraction bound compared to wildtype Dfm1 [2]: < 5%
Substance: Dfm1-5Ashp (from UniProt Q12743 1-341) (natural protein)
